The values that follow come from US20070010430A1.

For one experiment, the target named is MMP-9. The experiment in a line: cell-based or functional assay.
The target in a further experiment is MMP-2. Briefly: cell-based or functional assay.

On to “shark cartilage extract obtained in Section (1) of Example 1 (water extract of blue shark cartilage, ethanol precipitate)”, for which the decomposition-inhibition rate (type V collagen degradation, SDS-PAGE/western blot densitometry) in the experiment with MMP-9 and in the experiment with MMP-2 was 90% in each case.
